# Data as given in paper PMC8570500 (2021).
# B1: HA-Vpx HIV-2.Gh1 WT [HIV-2 (Ghana-1 strain)] / DCAF1, endogenous (DDB1- and Cul4A-associated factor 1) [human (endogenous in HeLa)] (parent complex)
# chain 1: MTDPRERVPPGNSGEETIGEAFEWLDRTIEALNREAVNHLPRELIFQVWQRSWRYWHDDQGMSPSYTKYRYLCLMQKAVFIHFKRGCTCLGGGHGPGGWRSGPPPPPPPGLV
# chain 2: not shown
# Variants of: B1
# Test: co-immunoprecipitation (anti-Flag IP of TASOR-Flag, western blot band quantification); Ternary read-out: endogenous DCAF1 recovered with TASOR-Flag (m24) in the presence of this HA-Vpx mutant, HeLa cells; lane 10; no value printed for the WT lane
row,Variant,screen value
1,chain 1 Q47A,1

# Variants of: B1
# Test: co-immunoprecipitation (anti-Flag IP of TASOR-Flag, western blot band quantification); Ternary read-out: endogenous DCAF1 recovered with TASOR-Flag (m24) in the presence of this HA-Vpx mutant, HeLa cells; lane 11; no value printed for the WT lane
row,Variant,screen value
1,chain 1 V48A,0.5

# Variants of: B1
# Test: co-immunoprecipitation (anti-Flag IP of TASOR-Flag, western blot band quantification); Ternary read-out: endogenous DCAF1 recovered with TASOR-Flag (m24) in the presence of this HA-Vpx mutant, HeLa cells; lane 12; no value printed for the WT lane
row,Variant,screen value
1,"chain 1 Q47A, chain 1 V48A",0.2
